# Test results: the nanobody polyreactivity screen of Harvey et al. (2022)
# Assay: yeast display, Sf9 membrane polyspecificity reagent, FACS + sequencing; frameworks hold sequencing errors
# Outline: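 Nanobodies from a synthetic yeast display library (Saccharomyces cerevisiae BJ5465), induced 36–48 hours with galactose, were stained 1 hour at 4 °C with 10% biotinylated, detergent-solubilized Sf9 membrane reagent, enriched on streptavidin microbeads, then FACS-sorted. Anti-HA (expression) and streptavidin (reagent binding) fluorescence set low and high (top ~1%) gates. Polyreactivity labels come from the gate of origin. Genes were colony-PCR amplified, MiSeq 2 × 250 sequenced and filtered by CDR length.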
row,Sequence,polyreactivity (PSR sort gate)
1,QVQLVESGGGLVQAGGSLRLSCAASGSTFYTNAMGWYRPAPGKEREFVAAISWSGSSTYADSVKGRFTISRDNAKNTVYLQMNSLKPEDTAVYYCAADWFKLRTDYYWGQGTQVTVSS,low polyreactivity
2,QVQLVESGGGLVQAGGSLRLSCAASGRTFFPYAMGWYRQAPAKEREFVAAITKTDDSTYYADSVKGRFTISRDNAKNTVYLQMNSLKPEDTAVYYCNAGDTQIRFYYWGQGTQVTVSS,low polyreactivity
3,QVQLVESGAGLVQAGGSLRLSCAASGSAFYVYARGWYTQAPGKERELVAAIRGGGSTNYADSVKGRFTISRDNAKNTFYLQMNSLKPEDTAVYDCAARYRSPRYRPSGYSYNYWGQGTQVTVSS,high polyreactivity
4,QVQLVESGGGLVQAGGSLRLSCAASGSIYRRYAMGWYRQAPGKERELVAAINQSGGRTYYADSVKGRFTISRDNAKNTVYLQMNSLKPEDTAVYYCAARYYGRVGGDSIGYNYWGQGTQVTVSS,high polyreactivity
5,QVQLVESGGGLVQAGGSLRLSCAASGFIFTLYAMGWYRQAPGKEREFVAAISWSDGSTTYADSVKGRFTISRDNAKNSVYSQMYSLKPEDTAVYYCADVTCSYIRGLVYHFYYWGQGTQVTVSS,low polyreactivity
6,QVQLVESGGGLVQAGGSLRISCAASGSIFNIYAMGWSRQAPGKERELVATITGIADSTYYADSVKGRFTISRDNAKNTVNFQMNSLKPEDTAVYYCAARRTRVTGRYSVYAFDYWGQGTQVTVSS,low polyreactivity
7,QVQLVESGGGLVQAGGSLRLSCAASGSIFDSNAMGWYRQAPGKERELVAAITVSGGDTYYADSVKGRFTISRDNAKNTVYLQMISLKPEDTAVYYCAKQWFTYPYYYWGQGSQVTVSS,high polyreactivity
8,QVQLVESGGGLVQAGGSLRLSCAASGSIFSRYALGWYRQAPGKERELVAAISTIGGSTYYADSVKGRFTISRDNSKNTVYLQMNSLKPEDTAVYYCNARQSAALSPRYGYWGQGTQVTVSS,high polyreactivity
9,QVQLVESGGGLVQAGGSLRLSCAASGSTIPLYAMGWYRQAPGKERELVAAISRRGGRTYYADSVKGRFTISRDNAKNSVYLQMNSLKPEDTGVYYCAARYTRRHYDYWGQGTKVTVSS,high polyreactivity
10,QVQLVESGGGLVQAGGSLRLSCAASGRIFDYYAMGWYRQAPGKERELVASISRSGGSTYYADSVKGRFTISRDNAKNTVYLQMNSLKPDDSAVYYCAASRGYYYGRVGYWGQGTQVTVSS,high polyreactivity
11,QVQLVESGGGLVQAGGSLRLSCAASGSTFGWNAMGWYRQAPGKERELVAAINKSGGRTYYADSVKGRFTISRDNGKNTVYLQMNRLKPEDTAVYYCAAVTPIRVTSPDYDYWGQGTQVTVSS,low polyreactivity
12,QVQLVESGRGLVQAGGSLRLSCAASGFTFPDNTMGRYRQAPGKERVLVAGIRRRGGSTYYADSVKGRFTISRDHAKKTVSLQMNSLKPEDTAVYYCAASRAVTQYSGGGYWGQGTQVTVSS,high polyreactivity
13,QVQLVESGGGLVQAGRSLRLSCAASGRIFYRKAMGWYRQAPGKERELVAGITSGGSTNYADSVKGRFTISRDNEKNTFDLQMNSVKPEDTAVYYCAKASPAKFYSEAGYDYWGQGTQVTVSS,low polyreactivity
14,QVQLVESGGGLVQAGGSLRLSCAASGSTFVANTMGWYRQAPGKERELVATIRRSGGSTYYADSVKGRFTISRDNAKNTVYLQMNSLKPEDTAVYYCAKDSRWPSYRGMDYWGQGTQVTVSS,low polyreactivity
15,QVQLVESGGGLVQSGGSLRLSCAASGRIFYYNAMGWYRQAPGKERELVAAITSSSGSSTYYADSVKGRFTISRDNAKNTVYLQMNSLKPEDTAVYYCAADATFIIRYLSRSDYWGQGTQVTVSS,low polyreactivity
16,QVQLVESGGGLIQAGGSLRLSCAASGSTFPYYAMGWYRQAPVKEREFVAAIRFSGSSTYDADSVKGRYTISRDYAKTTVYLQMNSLNREDTAVYYCATDYWLPSFSYDYWGQGTQVTVSS,low polyreactivity

row,Sequence,polyreactivity (PSR sort gate)
1,QVQLVESGGGLVQAGGSLRLSCAASGITFSLYAMGWYRQAPGKERELVAAIDWSSGSTYYADSVKGRFTISRDNAKNTVYLQMNSLKPEDTAVYYCAAEYVHHASGDFSTLYYYWGQGTQVTVSS,low polyreactivity
2,QVQLVESGGGLVQAGGSLRLSCAASGRIFQIYAMGWYRQAPGKERELVAAIRSGSNTNYADSVKGRFTISRDNAKNTVYLQMNSLKPEDTAVYYCAADGWYSAVGVWLEYDYWGQGTQVTVSS,low polyreactivity
3,QVQLVESGGGLVQAGGSLRLSCAASGLIFNTYAMGWYRQARGKERELVAAITDGGGTNYADSVKGRFTISRDNAKNTVYLQMNSLKPEDTAVYYCAARLASWPLTYDFQWYEYWGQGTQVTVSS,low polyreactivity
4,QVQLVESGGGLVQAGGSLRLSCAASGFTLAWNAMGWYRQAPGKERELVATISRSGSSTSYADSVKGRFTISRDTAKNTVYLQMNSLKPEDTAVYYCAADRYTVRMDYWGQGTQVTVSS,high polyreactivity
5,QVQLVESGGGLVQAGGSLRLSCDPSGYTLVDYAMGWYRQAPGKESELVAGISSGDSTYYADSVKGRFTISRDNAKNTVYLQMNSLKPEDTAVYYCNAGLKTIFLLYRWTLFDYWGQGTQVTVSS,high polyreactivity
6,QVQLVESGGGLVQAGGSLRLSCAASGFTTAYAMGWYRQAPGKERELVAAISSGGSTYYADSVKGRFTISRDNAKNTVYLQMNSLKPEDTAVYYCATGPYYGYDEFDYWGQGTQVTVSS,low polyreactivity
7,QVQLQEGGGLVQAGGSLRLSCAASGYISSRPAMGWYRQAPGKERAFVATIADGTSTYYADSVKGRFTISRDNAINTVYLQMNSLKPEDTSVYYWAAAYNTEFDLSYWGQGTQVTVSS,high polyreactivity
8,QVQLVESGGGLVQAGGSLRLSCAASGRIFYSYAMGWYRQAPGNERELVAAIPRSGGRTYYADSVKGRFTISRDKAKNTGYLQMNCLKPEDTAVYDCATVWPSISPYPGYNYWGQGTQVTVSS,high polyreactivity
9,QVQLVESGGGLVQAGGSLRLSCAASGSIFTYYAMGWYRQAPGKERELVASINWSGGRTYYADSVKGRFTISRDNAKNTVYLQMNSLKPEDTAVYYCNARSAYGTGNQRGRRYYWGQGTQVTVSS,high polyreactivity
10,QVQLVESGAGLVQAGGRLRLSCAASGIIFYNYAMGWYRQAPGKERQFVAAISWSGGSTNYADSVKGRFTISRDNAKNTVYLQMNSLKPEDTAVYYCAAEYSGNNYNSDYWGQGTQVTVSS,low polyreactivity
11,QVQLVESGGGLVQAGGSLRLICADYGRTFKWYAMGWYRQAPGKERELVAVITGLGGSTYYADSVKGRFTISRDNAKNTVYLQMKSLKPEDTAVYYCAARGYSHVASRLYYYWGQGNQVTVSS,high polyreactivity
12,QVQLVESGGGLVQAGGILRLSCAAYGSIFPHNAMGWYRQAPGKERELVASITSRGGITYYADSVKGRFTISRDNAKNTGYLQMNSLIPEDTAVYYCAGDLYIYPYDYWGQGTQVTVSS,low polyreactivity
13,QVQLVESGGGLVQAGGSLRLICAASGRIFIYYAMGWYRQAPGKERELVAAITGRDGSTYYADSVKGRFTISRDNAKNTVDLQKISLKPEDTAVYYCAASRFYFRRTFGGYPKLASYDYWGQGTQVTVSS,low polyreactivity
14,QVQLVESGGGLVQEGGSLRLSCAASGRISVRYGMGWYRQAPGKERELVATISQSGGSTYYADSVKGRFTISRDNAKNTVYLQMNSLKPEDTAVYYCAAETDYVRHARKYDFWGQGTQVTVAS,low polyreactivity
15,QVQHVESGGGLVQAGVSLRLSCAASGSIFPYNAMGWYRQAPGKERELVATISSGGSTNYADSVKGRFTISRDNAKNTVYLQMNSLKPEDTAVYYCAGDVIVFYYAPNYWGDIEYGYWGQGTQVTVSS,low polyreactivity
